Measurements: paper PMC11201802 (Protein Science : A Publication of the Protein Society, 2024)

Key:
Assay in all cases: crystal structure
Fab^S1CE1-EPR-1 = target: Fab^S1CE1-EPR-1
Fab^S1CE3-EPR-1 = target: Fab^S1CE3-EPR-1
Fab^S1CE4-EPR-1 = target: Fab^S1CE4-EPR-1
[1] = target: extracellular domain (ECD) of the human erythropoietin receptor (EPOR) with a C-terminal hexahistidine tag (human, UniProt P19235)
extracellular domain (ECD) of the human erythropoietin receptor (EPOR) with a C-terminal hexahistidine tag, sequence (P19235 25-250): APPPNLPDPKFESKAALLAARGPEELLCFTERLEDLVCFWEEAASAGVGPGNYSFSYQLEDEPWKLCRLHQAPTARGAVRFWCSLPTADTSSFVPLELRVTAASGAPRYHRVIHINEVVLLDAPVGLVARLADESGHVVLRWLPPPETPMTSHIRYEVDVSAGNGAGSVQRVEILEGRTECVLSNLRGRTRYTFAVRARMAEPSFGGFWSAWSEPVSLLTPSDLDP

B1: Fab^S1CE1-EPR-1 (Fab, V domains shown)
VH: EVQLVESGGGLVQPGGSLRLSCAASGFNLRSYYMHWVRQAPGKGLEWVASISPYYSYTYYADSVKGRFTISADTSKNTAYLQMNSLRAEDTAVYYCARHGYGAMDYWGQGTLVTVFN
VL: DIQMTQSPSSLSASVGDRVTITCRASQSVSSAVAWYQQKPGKAPKLLIYSASSLYSGVPSRFSGSRSGTDFTLTISSLQPEDFATYYCQQSSYSLITFGQGTKVEIK
- stoichiometry N (Fab^S1CE1-EPR-1): 2

B2: Fab^S1CE3-EPR-1 (Fab, V domains shown)
VH: B1 VH
VL: B1 VL
- stoichiometry N (Fab^S1CE3-EPR-1): 2

B3: Fab^S1CE4-EPR-1 (Fab, V domains shown)
VH: B1 VH
VL: B1 VL
- stoichiometry N (Fab^S1CE4-EPR-1): 2

B4: Fab^S1CE-EPR-1 (Fab, V domains shown)
VH: B1 VH
VL: B1 VL
- binding result [1]: binds
